{"source": "paper PMC7925594", "about": "(Nature Communications, 2021)", "binders": {"B1": {"name": "HA-tagged N4BP1 (full-length) (natural protein, UniProt O75113 1-896, looked up)", "chain": "MAARAVLDEFTAPAEKAELLEQSRGRIEGLFGVSLAVLGALGAEEPLPARIWLQLCGAQEAVHSAKEYIKGICEPELEERECYPKDMHCIFVGAESLFLKSLIQDTCADLCILDIGLLGIRGSAEAVVMARSHIQQFVKLFENKENLPSSQKESEVKREFKQFVEAHADNYTMDLLILPTSLKKELLTLTQGEENLFETGDDEVIEMRDSQQTEFTQNAATGLNISRDETVLQEEARNKAGTPVSELTKQMDTVLSSSPDVLFDPINGLTPDEEALSNERICQKRRFSDSEERHTKKQFSLENVQEGEILHDAKTLAGNVIADLSDSSADSENLSPDIKETTEEMEYNILVNFFKTMGYSQEIVEKVIKVYGPSTEPLLLLEEIEKENKRFQEDREFSAGTVYPETNKTKNKGVYSSTNELTTDSTPKKTQAHTQQNMVEKFSQLPFKVEAKPCTSNCRINTFRTVPIEQKHEVWGSNQNYICNTDPETDGLSPSVASPSPKEVNFVSRGASSHQPRVPLFPENGLHQQPEPLLPNNMKSACEKRLGCCSSPHSKPNCSTLSPPMPLPQLLPSVTDARSAGPSDHIDSSVTGVQRFRDTLKIPYKLELKNEPGRTDLKHIVIDGSNVAITHGLKKFFSCRGIAIAVEYFWKLGNRNITVFVPQWRTRRDPNVTEQHFLTQLQELGILSLTPARMVFGERIASHDDRFLLHLADKTGGIIVTNDNFREFVNESVSWREIITKRLLQYTFVGDIFMVPDDPLGRSGPRLEEFLQKEVCLRDMQPLLSALPNVGMFDPSFRVPGTQAASTSHQPPTRIQGAPSSHWLPQQPHFPLLPALPSLQQNLPMPAQRSSAETNELREALLKIFPDSEQRLKIDQILVAHPYMKDLNALSAMVLD", "notes": "the vector of the other experiments is only called a mammalian expression vector; also called HA-N4BP1; F.L; source: HEK293T or N4BP1-/- HEK293T, transfected, in lysate; also overexpressed in HEK293T and purified (immunoprecipitation, HA peptide elution, Superdex 200 gel filtration); not shown: HA, N-terminal, kept"}}, "key": {"linear tetra-ubiquitin": {"target": "T1, linear tetra-ubiquitin (UniProt P0CG48 1-76; P0CG48 1-76; P0CG48 1-76; P0CG48 1-76)", "T1 construct": "ubiquitin, unit 1 of 4; ubiquitin, unit 2 of 4; ubiquitin, unit 3 of 4; ubiquitin, unit 4 of 4; also called linear tetra-ubiquitin chains; source: bought: LifeSensors (recombinant)", "T1 sequence (P0CG48 1-304, one chain of several)": "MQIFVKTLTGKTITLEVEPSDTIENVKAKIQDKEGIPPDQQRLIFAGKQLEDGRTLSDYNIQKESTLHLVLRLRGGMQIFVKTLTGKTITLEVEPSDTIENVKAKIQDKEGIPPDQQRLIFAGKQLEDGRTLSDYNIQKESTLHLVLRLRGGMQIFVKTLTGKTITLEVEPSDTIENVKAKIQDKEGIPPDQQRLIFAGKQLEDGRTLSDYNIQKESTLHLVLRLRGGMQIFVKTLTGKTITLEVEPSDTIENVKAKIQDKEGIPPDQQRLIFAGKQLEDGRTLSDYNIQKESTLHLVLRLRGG", "assay": "co-IP; purified recombinant HA-N4BP1 or domain deletion forms incubated with ubiquitin chains in assay buffer (50 mM Tris-HCl pH 7.4, 150 mM NaCl, 1 mM dithiothreitol) for 2 h at 4 °C; immunoprecipitation with anti-HA (mouse IgG as control); immunoblot", "conditions": "both partners purified"}, "linear hepta-ubiquitin": {"target": "T2, linear hepta-ubiquitin (UniProt P0CG48 1-76; P0CG48 1-76; P0CG48 1-76; P0CG48 1-76; P0CG48 1-76; P0CG48 1-76; …)", "T2 construct": "ubiquitin, unit 1 of 7; ubiquitin, unit 2 of 7; ubiquitin, unit 3 of 7; ubiquitin, unit 4 of 7; ubiquitin, unit 5 of 7; ubiquitin, unit 6 of 7; ubiquitin, unit 7 of 7; The reagents name a supplier only for the tetra-ubiquitins; also called linear ubiquitin chains; linear polyubiquitin chains", "T2 sequence (P0CG48 1-532, one chain of several)": "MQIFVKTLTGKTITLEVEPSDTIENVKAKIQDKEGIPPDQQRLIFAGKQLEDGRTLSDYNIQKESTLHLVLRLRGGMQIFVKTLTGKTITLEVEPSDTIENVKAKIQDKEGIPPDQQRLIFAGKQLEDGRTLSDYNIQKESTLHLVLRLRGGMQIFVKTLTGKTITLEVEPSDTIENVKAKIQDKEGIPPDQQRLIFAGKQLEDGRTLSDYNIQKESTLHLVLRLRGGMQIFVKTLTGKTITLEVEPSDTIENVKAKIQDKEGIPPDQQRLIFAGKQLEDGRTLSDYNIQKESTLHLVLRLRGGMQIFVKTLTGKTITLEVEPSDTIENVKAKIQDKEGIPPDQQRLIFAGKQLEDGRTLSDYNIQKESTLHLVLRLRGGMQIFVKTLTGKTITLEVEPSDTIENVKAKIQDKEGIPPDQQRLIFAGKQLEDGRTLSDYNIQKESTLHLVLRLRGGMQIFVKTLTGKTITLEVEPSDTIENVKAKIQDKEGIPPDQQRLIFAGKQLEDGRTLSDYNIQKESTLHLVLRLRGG", "assay": "co-IP; purified recombinant HA-N4BP1 or domain deletion forms incubated with ubiquitin chains in assay buffer (50 mM Tris-HCl pH 7.4, 150 mM NaCl, 1 mM dithiothreitol) for 2 h at 4 °C; immunoprecipitation with anti-HA (mouse IgG as control); immunoblot", "conditions": "both partners purified"}}, "data": [{"binder": "B1", "values": [{"measurement": "binding result", "setting": "linear tetra-ubiquitin", "value": "binds"}, {"measurement": "binding result", "setting": "linear hepta-ubiquitin", "value": "binds"}]}]}
